Experimental data as given in the DeepSol protein solubility set.

Test: soluble on expression in E. coli; label from the status in PepcDB or PDB records

Sequence | soluble on expression in E. coli
MSKLYFRYGAMNSGKSTHLMQVAHNYEERGMEVIIIKPSTDKKGGDKVVSRLGVERVVDILIDNDENIIETIEDRLEKGRKIDCIIVDEVQFLKAHHIDELFEIAVGKGIPVICYGLRTDFQMNGFEGSERLLLLAHSIEEMKTICRCGRKAILNGRMINGKFTFEGEQVAIDLVDNVEYQSLCGQCYFKYKYGKDSDNLEHHHHHH | soluble
MNYGNNGGGQWQPRGNNNWRPQGRGRGGGGWKGNDNRGGYRGGSSNDGGWSNFRDDGNLNFASPYQANRGNFRGNYRGGGGGGGGNQNNYGNRGRGRGGFDRGRGGGGGGNKNFGPIDANKCIIPSMWNNPWDALEKEYEQEYGVAITEKVTDPSPSPSSAEETTA | not soluble
MSLGEGFPSFEEMVEKELEGYSGFRFLDRGIYAKQLEQWFRFFPKKQFLILKSENFFEDPAKEFRKVICFLNLPVWELPEYANVNWKVLARSKRVERYQKINKETRERLLYYFKPFNDQLYALINKNFGWKEGHHHHHH | not soluble
MEKLVAYKRMPLWNKQTMPEAVQQKHNTKVGTWGKITVLKGALKFIELTEEGEVLAEHLFEAGADNPMAQPQAWHRVEAATDDVEWYLEFYCKPEDYFAKKYNTNPVHSEVLEAMQTVKQGKALDLGCGQGRNSLFLAQQDFDVTAVDQNGLALEILQSIVEQEDLDMPVGLYDINSASIEQEYDFIVSTVVLMFLQADRIPAIIQNMQEKTSVGGYNLIVCAMDTEDYPCSVNFPFTFKEGELADYYKDWELVKYNENPGHLHRRDENGNRIQLRFATLLAKKIKLEHHHHHH | soluble
MAPVKLYMVEVIDKKEIAANERRSRENDVTGPEITHYYQVTFRLTTDDRKDLVLNIDKSSYQNIEPEMKGRLFMQGSRFVQFETDVPIDEQKLEHHHHHH | soluble
MGSDKIHHHHHHMSEIKNRIDFVYIFDVQDGNPNGDPDAGNLPRVDAETGMGLVTDVCLKRKVRNYVQVAKGLEDGYDIFIKEKAVLNTLIDKAHDDSEVKNAKDKTDAARRFMCKNYFDVRTFGAVMSTGKNAGQVRGPIQFTFARSVDPIAAAEHSITRMAVATDAEAKKQSGDNRTMGRKATVPYGLYICHGFISANLAQQTGFSEEDLALFWEALKNMFDMDRSAARGLMSAQKLIVFKHDSVLGNAPANKLFDLVKVEKVCDGAPRSFGDYHVTIDKEHVPSNVTVEELI | not soluble
GMDTAKTKPFDEMFLQDEVIRPIYAEYAAWLQDVPHQQLESKRQEAELLFRRVGITFNVYGEDAGAERLIPFDVVPRILSASEWARLSDGAIQRVKALNMFLHDVYHDQEIIKAGIVPSSILANAQYRPEMFGVDVPGGVYAHIAGVDLVRTGENDFYVLEDNLRTPSGVSYMLENRKMMMRLFPELFRRYPVAPVEHYPQVLLNNLRAVAQAGVHEPTVVLLTPGAYNSAYFEHAFIAQQMGIELVEGQDLFVRNNAVYMRTTEGPKRVDVIYRRIDDDFIDPLSFRPDSMLGVPGLLSVYRNGGVTLANAVGTGVADDKDTYIYVPEMIRFYLGEEPILSNVPTYQLSKADDLKYVLDNLAELVVKEVQGSGGYGMLVGPAASKQELEDFRQRILANPANYIAQPTLALSTCPTLVETGIAPRHVDLRPFVLSGKTVSLVPGALCRVALREGSLVVNSSQGGGTKDTWILKD | soluble
MTCTTEIDILKWTVRYCSSLAAHLLTPTRLFKYEIQQQSDLRNATENKTEKYISDDVGHCRHTYMQIR | soluble
GPGSMPRYYTPHEVRAHCFEDDAYVSINGKVLDITPLIQMYQGTRYASLLQPLILAAGTDMTHLLDKKTMDFKTCIDPETGFRTYAQPFGRFAHTPTVLPDSSIDLSYEVPWWQDERYVIGQLTRKTRKIRIVNTLNGHEHTLEVCSEETLREIVMTRYLSHNAHALSYTWRRLDSEPRDLDMDKTLDENGVLDESEEFESLGLNADYYIPALHLYYDDDLTEA | soluble
MRTLLLAGGLLVLSGCSLLMPTPDPNRAWVDLDTQPDADLAAVEVDDKSWDRTRYFEVDPGTRELTVRYQFTVDPTNIGPVDSPLWRDCQLNLKFKDFSAGQRYRLEAGHIGFRPWAKLYDQDNRELARGREGRCAKV | not soluble
MSPAWPLRPGQKVRVEFYKYPEEALHYFWEAEVVEVRPEGVLTLLPQGGVFHHVGKGRSLVLDHDAYVAFFPGAWYSGGPDVREGRVLEYYWNVQTPALWTGEAFRQYDLELDVKCRADHTCEVFDREEFLAKRPLYPRAWVEEAERAVEAVFRHMREGRWPVLPPGKPLPWMERI | soluble
MSLYKDDSLTLHTDLYQINMMQVYFNQGIHNKRAVFEVFFRKEPFANGYAVFAGLERMIAYLQGLSFSETDIAYLEELGYPADFVAYLKEFKLELSVKSAKEGDLVFANEPIVQIEGPLAQCQLVETAILNIVNFQTLIATKAARIRSVIEDEPLLEFGTRRAQEMDAAIWGTRAAVIGGANATSNVRAGKLFGIPVSGTHAHALVQAYGNDYDAFMAYAGTHKDCVFLVDTYDTLRLGVPAAIRVASELGDKINFLGVRIDSGDMAYLSKKVRKLLDEAGYPHAKIYASNDLDENTILNLKMQKAKIDIWGVGTKLITAYDQPALGAVYKIVSIEDDNGVMQDTIKLSNNAEKVSTPGKKQVWRITSRAKGKSEGDYITFTDTDVNSLDEIDMFHPTYTYINKKVRDFDAVPLLVDIFDQGKLVYTQPSLSDIQDYARREFDKLWDEYKRVLNPQDYPVDLACDVWQNKVNLIDRIRKEAYEKGDVKEGHHHHHH | soluble
MSLKYIIGMDVGTTATKGVLYDINGKAVASVSKGYPLIQTKVGQAEEDPKLIFDAVQEIIFDLTQKIDGKIAAISWSSQMHSLIGLGSDDELLTNSITWADNCAKSIVQDAKNRGFAQQIYRKTGMPMHPMAPIYKLLWLKNKKTEVFSQAQKWIGIKEYIIFRLTGKLVTDTTMAAGTGILNLKTLTWDQELLDILKIKKEQLPKIAQPTKVIFPIKTEYVKKLGIDSDTKIILGASDGYLSTIGVNAIDSDHCALNVGTSGAIRTIVDQPKIDPSASYFCYPADKTHYLLGGPVNNGGIVFNWARQTLFDADETPQDFLDVAQTAPAGSRNLIFLPYLGGERAPIWDANARGSFVGLTRMHQKPEMARAVIEGIIFNLYDAASNLIKNTKKPVAINATGGFLKSDFVRQLCANIFNVPIVTMKEQQSGTLAAMFLARQALGLNQDLSEIGQFAQADKVYFPNPKEAATYQKLFPLYCEIRNALAASYGKFSNINEGHHHHHH | soluble
RSLKNEELYHQSYDCVCVMFASIPDFKEFYTESDVNKEGLECLRLLNEIIADFDDLLSKPKFSGVEKIKTIGSTYMAATGLSAIPSQEHAQEPERQYMHIGTMVEFAYALVGKLDAINKHSFNDFKLRVGINHGPVIAGVIGAQKPQYDIWGNTVNVASRMDSTGVLDKIQVTEETSLILQTLGYTCTCRGIINVKGKGDLKTYFVNTEMSR | soluble
QDVIVRTAVAEDVAPIIKMRKHIKEFGSRDENEELIIRQIEKGVKRIYYIEQDQEVVAVAETSAENSFSAMITGVATSDGYRQRGFASTLLKKLCCDVLAEGKKPCLFYDNPVAGEIYHRLGFEHTGDFVMYK | not soluble
MTEKKSDRTAAKKRSEQAVHELVTRIDTHPGDADAYYELATVLVDLKSFAQAEELLMKALGLFQAQPAVVDKLHYGLGNVYYAAEDYPKAIQQFDSLGAQWKGAGYLMLAQSYMANGDHKRALAFALTALASQPDDVATLQVVAENLLALGNMAQAAQYYDQLLAIDPKNGRAIFDRGLVAMVQGTPYADYFERAQTLDPQYFEQGQQRLADIEKFMQQTPDSDQQLEHHHHHH | soluble
MATGSGSLIWFRKGLRVHDNPALEYASKGSEFMYPVFVIDPHYMESDPSAFSPGSSRAGVNRIRFLLESLKDLDSSLKKLGSRLLVFKGEPGEVLVRCLQEWKVKRLCFEYDTDPYYQALDVKVKDYASSTGVEVFSPVSHTLFNPAHIIEKNGGKPPLSYQSFLKVAGEPSCAKSELVMSYSSLPPIGDIGNLGISEVPSLEELGYKDDEQADWTPFRGGESEALKRLTKSISDKAWVANFEKPKGDPSAFLKPATTVMSPYLKFGCLSSRYFYQCLQNIYKDVKKHTSPPVSLLGQLLWREFFYTTAFGTPNFDKMKGNRICKQIPWNEDHAMLAAWRDGKTGYPWIDAIMVQLLKWGWMHHLARHCVACFLTRGDLFIHWEQGRDVFERLLIDSDWAINNGNWMWLSCSSFFYQFNRIYSPISFGKKYDPDGKYIRHFLPVLKDMPKQYIYEPWTAPLSVQTKANCIVGKDYPKPMVLHDSASKECKRKMGEAYALNKKMDGKVDEENLRDLRRKLQKDEHEESKIRNQRPKLK | soluble
MIKNNIKHTWYFGHPQQLVWDYLTKPELLSQWLMESDFQPVAGHTFMFNTKPKVKVGFDGLIYCQVLKVQPDHELEHHHHHH | soluble
SAPALLTAAQRTMLAQVGACNSHLTSDENMAINELRLHKPRLPKDTWFFTDPNKDPDDVVTYTLGKQLQAEGFVHITDVVATLGDAEVRSQRAEMAKGVFNKLGLHDVHVSRGRDYAMNSLQSKEHAKFLLEGHALRAGPGEIHRDSLQDMSRRLARAPHGVGIVVIAGMSDINALITTCPDMVRERVDDITIMGGVEPLKDADGFVQPDARAYNNATDMDAARSLYRKAQELGIPLRIVTKEAAYKTAVSPSFYEGIAGSGHPVGHYLRDVQKSALKGLWEGIQAGLLPGLDDSWFFRTFMPNAQIEAAQLDKNKESSFEDIWPKVTKLNLYDPLTLLASVPGAAKLLFKPKAIHTEGFGVVEQVGPDDVTHPEKAKLLMSALAKSALVQSTVAPD | soluble
MIRKCTDHGYFRGGSCQQCKRPGRYVLDDGREEKLGRFVSGTLRHFPASAGVKMDKYGWIDLNAFCEVMKKRYNWMRKEYLYALVESDEKGRYQISGPMIRARYGHSVNVDLDYDESDTPYVYYGASPEEVDVLLENGIFPIKQRYVHLSTTYEKAAEVALIHTESPVILQVDAFRAQEDGISLKLATDYIVLAEKIPPDYLFVLEDLEHHHHHH | soluble
MNQEVRFSRLEPEQRKALLIEATLACLKRHGFQGASVRKICAEAGVSVGLINHHYDGKDALVAEAYLAVTGRVMRLLRGAIDTAPGGARPRLSAFFEASFSAELLDPQLLDAWLAFWGAVGSIEAIGRVHDHSYGEYRALLVGVLRQLAEEGGWADFDAELAAISLSALLDGLWLESGLNPATFTPRQGVQICEAWVDGLEAGAHRRFRRAMEAC | soluble
MGSDKIHHHHHHMNKPLDKQLAELDIFSLLLFRAIFETGHANIAARQLDVSAPKVSRALASLRLIFADELFYRRQQGFRPTPLAEQIYPAIRELTDSINLLGMQLKDHQAFHRQECQVFDLAVSSGILTTLALEFNRREGLCPSVVLHHWQENTADRIHAGELDLGLALAPEPHTELSYERLCDAPGLCLVGAANHPIWQYTDICLEHICEYPFLCMNYPGFNDKVDPLELFCHREGLIPPTVLRVTDKEEWFGHLLCQHSLAFASPLEWGLLNALPGVEIKHLPAKEISRLHSGSAVPGLYLIEKPAHHRRYSPDDREKLLHIISLTLGLVTEDHPVNFSI | not soluble
GPGSMRSAVNLGGAPRVPSQRLPAFEGVSPRIVARQVPAHRGEYVSLVLRPTSLNAQRNSLVASCVVTDESVEVMGLPADAEVAQVNEFVCYINPSSGELEYYQHGTYNDEYDVDVYRKLLELCPKFPALF | not soluble
MSLGQHFLKDLKVAQDIADTVDTFPELPVLEVGPGMGVLTQFLVKKDRLVKVVEVDYESVAYLREAYPSLEDHIIEDDFLKMNLHRLFDGKPFVLTGNYPYNISSQIFFKMLENKDIIPCCTGMIQKEVAERIAAGPGSKTYGILSVLIQAWYKVEYLFTVSEHVFNPPPKVKSAVIRMTRNDTKELGCDEKLFKQVVKTTFNQRRKTLRNSIKPILGKDCPLTEDALFNKRPEQLSVEEFISLTNQVEEALKTATASEGHHHHHH | soluble
